Here are results for two molecules from PMC5472179 (Nature Communications, 2017).

Ends that are not written are not given here. * marks the point of attachment. FITC = O=C1OC2(c3ccc(O)cc3Oc3cc(O)ccc32)c2ccc(NC(=S)*)cc21

The test has as its target T1, eVP30 110-272 (Ebola virus (Zaire), UniProt Q05323 110-272).
T1 sequence: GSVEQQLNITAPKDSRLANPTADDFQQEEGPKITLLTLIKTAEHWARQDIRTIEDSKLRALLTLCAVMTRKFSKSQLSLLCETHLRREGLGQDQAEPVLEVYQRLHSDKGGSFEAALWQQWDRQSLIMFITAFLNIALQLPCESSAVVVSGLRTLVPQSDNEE
The test is described as follows: fluorescence polarisation. To be noted: both partners purified. (In fluorescence polarisation assays a small probe gives low polarisation when free and higher when bound to something large.)

{FITC}-RTPTVAPPAPVYRDHS [FITC-labeled eNP600-615 peptide]: the binding result is “binds”.

Turning to RTPTVAPPAPVYRDHS [unlabeled eNP600-615 peptide], the binding result was “binds”.
